For test [1], the target named is T1, human transferrin receptor (TfR) (human, UniProt P02786 1-760).
T1 construct: whole, on cells; Always the endogenous receptor on human tumour cell lines; no recombinant TfR was used; also called TfR/CD71
Put plainly: FACS on LS-174T cells, scFv on phage, anti-M13 detection (FIG. 7).

Test [2] deals with T1, human transferrin receptor (TfR). Briefly: cell-based or functional assay.
Test [3] concerns the target T2, murine TfR (murine, UniProt Q62351 1-763).
T2 construct: whole, on cells; Endogenous receptor on murine cell lines; also called murine transferrin receptor
Put plainly: flow cytometry on murine Ba/F3 cells, 10 µg/ml, anti-human Fc-phycoerythrin (FIG. 18 (b)). On the technique in general: A flow cytometer gives signals particle by particle.

Test [4] addresses T2, murine TfR. Briefly: FACS on murine FMA3 cells, 50 µg/ml, penta-His detection (FIG. 16-d right).

T1 sequence (P02786 whole entry): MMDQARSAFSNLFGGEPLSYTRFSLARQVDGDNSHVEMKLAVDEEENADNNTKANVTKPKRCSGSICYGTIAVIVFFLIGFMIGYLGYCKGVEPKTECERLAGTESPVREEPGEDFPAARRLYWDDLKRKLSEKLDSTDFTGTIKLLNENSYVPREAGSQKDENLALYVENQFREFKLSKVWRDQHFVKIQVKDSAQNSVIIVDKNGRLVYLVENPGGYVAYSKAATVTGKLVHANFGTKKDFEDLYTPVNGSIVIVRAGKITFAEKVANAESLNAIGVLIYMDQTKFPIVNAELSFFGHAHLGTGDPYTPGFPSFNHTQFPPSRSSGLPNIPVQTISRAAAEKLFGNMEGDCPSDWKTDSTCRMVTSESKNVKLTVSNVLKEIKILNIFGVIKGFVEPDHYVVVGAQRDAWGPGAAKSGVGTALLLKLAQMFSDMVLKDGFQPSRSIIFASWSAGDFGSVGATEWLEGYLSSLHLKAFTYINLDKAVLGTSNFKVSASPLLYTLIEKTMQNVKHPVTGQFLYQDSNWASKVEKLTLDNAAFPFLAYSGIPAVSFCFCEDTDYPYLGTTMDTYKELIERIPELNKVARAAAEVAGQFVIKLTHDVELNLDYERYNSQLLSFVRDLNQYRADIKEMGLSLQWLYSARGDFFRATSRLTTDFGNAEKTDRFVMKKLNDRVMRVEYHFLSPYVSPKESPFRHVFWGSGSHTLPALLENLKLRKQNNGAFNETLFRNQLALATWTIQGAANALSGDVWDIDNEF
T2 sequence (Q62351 whole entry): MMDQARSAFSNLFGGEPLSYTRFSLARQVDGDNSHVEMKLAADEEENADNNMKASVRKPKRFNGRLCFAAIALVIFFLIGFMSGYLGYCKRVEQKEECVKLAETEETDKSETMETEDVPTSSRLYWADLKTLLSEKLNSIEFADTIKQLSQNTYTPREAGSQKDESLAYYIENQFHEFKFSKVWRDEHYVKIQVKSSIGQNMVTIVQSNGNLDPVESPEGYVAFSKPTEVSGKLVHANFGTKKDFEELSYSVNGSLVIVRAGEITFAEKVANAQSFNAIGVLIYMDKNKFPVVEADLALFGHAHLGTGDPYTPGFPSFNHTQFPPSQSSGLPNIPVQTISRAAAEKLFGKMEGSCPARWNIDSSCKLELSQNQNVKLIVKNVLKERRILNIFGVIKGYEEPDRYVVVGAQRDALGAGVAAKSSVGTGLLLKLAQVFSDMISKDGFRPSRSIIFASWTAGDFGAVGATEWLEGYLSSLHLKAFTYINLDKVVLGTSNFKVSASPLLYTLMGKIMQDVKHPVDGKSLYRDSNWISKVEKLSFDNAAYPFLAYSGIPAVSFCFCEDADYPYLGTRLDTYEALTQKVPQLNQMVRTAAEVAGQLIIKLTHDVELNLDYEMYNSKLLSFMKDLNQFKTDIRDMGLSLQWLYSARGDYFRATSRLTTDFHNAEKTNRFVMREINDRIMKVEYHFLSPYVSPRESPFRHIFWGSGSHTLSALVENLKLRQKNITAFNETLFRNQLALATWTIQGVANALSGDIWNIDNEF

B1: scFv-3 GH9 (scFv)
scFv: QVQLAESGGGLVKPGGSLRLSCAASGFTFSDYYMSWIRQAPGKGLEWVSYISTSGSSIYYVDSVKGRFTISRDNAKNSLYLQMDSLRDDDTAVYYCARDLHGDYAFDSWGQGTLVTVSSGGGGSGGGGSGGGGSSELTQDPAVSVALGQTVRITCQGDSLRSYYASWYQQKPGQAPVLVIYGKNNRPSGIPDRFSGSKSGNSASLDISGLQSEDEADYYCATWDDNLSGPIFGGGTKVTVLG
notes: Monovalent human scFv, about 28 kDa; on phage or soluble depending on the assay; tags not described; also called anti-TfR scFv
Turning to B1, in test [1], the binding result is recorded as “binds”.

B2: scFv-3TG9 (scFv)
scFv: QVQLVESGGGLVEPGGSLRLSCAASGFTFSNYAINWVRQAPGKGLEWVANIHHDGNGKYYVDSVEGRFTISRDNAKNSLYLQMDSLRAEDTAIYYCARDGYGGYLDLWGQGTLVTVSSGGGGSGGGGSGGGGSSELTQDPAVSVALGQTVRITCQGDSLRSYYASWYQQKPGQAPVLVIYGKNNRPSGIPDRFSGSGSGNTASLTITGAQAEDEADYYCAAWDDSLSGPVFGGGTKVTVLG
notes: as for B1
As for B2, the binding result in test [1] was “binds”.

B3: scFv-3TF2 (scFv)
scFv: QVQLQQSGGGVVQPGGSLRLSCAASEFTFSASGMHWVRQAPGKGLEWMAFIAYDGNQKFYADSVKGRFTISRDNSKNTLYLQMDSLRGEDTAVYYCAKEMQREGYFDYWGQGTLVTVSSGGGGSGGGGSGGGGSNFMLTQDPAVSVALGQTVRITCQGDSLRSYYASWYQQKPGQAPVLVIYGKNNRPSGIPDRFSGSKSGNSASLDISGLQSEDEADYYCATWDDNLSGPIFGGGTKVTVLG
notes: as for B1
In the case of B3, in test [1], the binding result is recorded as “binds”.

B4: scFv-3TF12 (scFv)
scFv: QVQLQESGGGLVQPGGSLRLSCAASGFSFNTYTMHWVRQAPGKGLEWVADIAYDGSTKYYADSVKGRFTISRDNAKNSLYLQMNSLRAEDTAVYYCARDAVAGEGYFDLWGRGTLVTVSSGGGGSGGGGSGGGGSQSALTQDPAVSVALGQTVRITCQGDSLRSYYASWYQQLPGTAPKLLIYRNNQRPSGVPDRFSGSKSGTSASLAISGLRSEDEADYYCAAWDDSLSAWVFGGGTKLTVLGA
As to B4, the “IC50 (µg/ml), proliferation test on the line ERY-1, three days” value in test [2] came to 0.35 µg/mL.

B5: F12-Fc (Fc fusion)
chain: QVQLQESGGGLVQPGGSLRLSCAASGFSFNTYTMHWVRQAPGKGLEWVADIAYDGSTKYYADSVKGRFTISRDNAKNSLYLQMNSLRAEDTAVYYCARDAVAGEGYFDLWGRGTLVTVSSGGGGSGGGGSGGGGSQSALTQDPAVSVALGQTVRITCQGDSLRSYYASWYQQLPGTAPKLLIYRNNQRPSGVPDRFSGSKSGTSASLAISGLRSEDEADYYCAAWDDSLSAWVFGGGTKLTVLGA
notes: Homodimer of about 110 kDa (2 x 55 kDa), made in CHO cells; also called scFv-F12-Fc; antibody F12 in the format scFv-Fc; not shown: constant CH2 and CH3 domains of a human IgG1 (vector pFuse-hG1)
As to B5, the binding result with murine TfR [3] is “binds”.

B6: F12CH (other)
scFv: QVQLQESGGGLVQPGGSLRLSCAASGFSFNTYTMHWVRQAPGKGLEWVADIAYDGSTKYYADSVKGRFTISRDNAKNSLYLQMNSLRAEDTAVYYCARDAVAGEGYFDLWGRGTLVTVSSGGGGSGGGGSGGGGSQSALTQDPAVSVALGQTVRITCQGDSLRSYYASWYQQLPGTAPKLLIYRNNQRPSGVPDRFSGSKSGTSASLAISGLRSEDEADYYCAAWDDSLSAWVFGGGTKLTVLGA
notes: Bivalent dimer of the scFv 3TF12, about 55 kDa, made in bacteria, held by a bond that DTT reduces; no Fc; also called anti-TfR F12CH; 3TF12 in the scFvCH format; not shown: tail from the bacterial vector pSYN-HIS-CYS (histidine tag, cysteine for dimerisation)
B6: the binding result with murine TfR [4] was “binds”. In addition, the “IC50 (µg/ml), proliferation test on the line ERY-1, three days” value in test [2] came to 0.1 µg/mL.

(Values after patent US20130045206A1 (published 2013).)
